Data published in the supplement of paper PMC10065799, “High-throughput profiling of sequence recognition by tyrosine kinases and SH2 domains using bacterial peptide display” (eLife, 2023).

How the values were obtained:
[1] = target: SHP2-C SH2; assay: SH2 binding enrichment of the phosphorylated peptide, bacterial display (enrichment ratio); higher = better substrate or ligand; peptides without Tyr show the background
[2] = target: c-Src SH2; assay: as above
[3] = target: Grb2 SH2 (UniProt P62993); assay: as above
[4] = target: Fes (UniProt P07332); assay: phosphorylation enrichment, bacterial display (enrichment ratio); higher = better substrate or ligand; peptides without Tyr show the background
[5] = target: FGFR3 (UniProt P22607); assay: as above
[6] = tested on: AncSZ; assay: as above
[7] = target: FGFR1 (UniProt P11362); assay: as above
[8] = target: Fyn (UniProt P06241); assay: as above
[9] = target: EPHB1 (UniProt P54762); assay: as above
[10] = tested on: c-Src; assay: as above
[11] = tested on: Fer (mouse); assay: as above
[12] = target: MERTK (UniProt Q12866); assay: as above
[13] = target: Hck (UniProt P08631); assay: as above
[14] = tested on: c-Abl (mouse); assay: as above
[15] = target: Jak2 (UniProt O60674); assay: as above
[16] = target: EPHB2 (UniProt P29323); assay: as above
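For SH2 binding enrichment of the phosphorylated peptide, bacterial display in this document: peptide library displayed on the E. coli surface as eCPX fusions, selected cells deep-sequenced, score is each peptide's frequency after selection divided by its frequency in the input.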
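For phosphorylation enrichment, bacterial display in this document: 11-residue human phosphosite peptides and single-mutation variants displayed on the E. coli surface, counted by deep sequencing, each peptide's frequency after selection divided by its frequency in the unselected input library; frequency after pTyr selection over input frequency; kinase dosed for 20-30% of maximal phosphorylation in three min.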

Chain of EPHB2 (P29323 whole entry, looked up, the tested form may be a part): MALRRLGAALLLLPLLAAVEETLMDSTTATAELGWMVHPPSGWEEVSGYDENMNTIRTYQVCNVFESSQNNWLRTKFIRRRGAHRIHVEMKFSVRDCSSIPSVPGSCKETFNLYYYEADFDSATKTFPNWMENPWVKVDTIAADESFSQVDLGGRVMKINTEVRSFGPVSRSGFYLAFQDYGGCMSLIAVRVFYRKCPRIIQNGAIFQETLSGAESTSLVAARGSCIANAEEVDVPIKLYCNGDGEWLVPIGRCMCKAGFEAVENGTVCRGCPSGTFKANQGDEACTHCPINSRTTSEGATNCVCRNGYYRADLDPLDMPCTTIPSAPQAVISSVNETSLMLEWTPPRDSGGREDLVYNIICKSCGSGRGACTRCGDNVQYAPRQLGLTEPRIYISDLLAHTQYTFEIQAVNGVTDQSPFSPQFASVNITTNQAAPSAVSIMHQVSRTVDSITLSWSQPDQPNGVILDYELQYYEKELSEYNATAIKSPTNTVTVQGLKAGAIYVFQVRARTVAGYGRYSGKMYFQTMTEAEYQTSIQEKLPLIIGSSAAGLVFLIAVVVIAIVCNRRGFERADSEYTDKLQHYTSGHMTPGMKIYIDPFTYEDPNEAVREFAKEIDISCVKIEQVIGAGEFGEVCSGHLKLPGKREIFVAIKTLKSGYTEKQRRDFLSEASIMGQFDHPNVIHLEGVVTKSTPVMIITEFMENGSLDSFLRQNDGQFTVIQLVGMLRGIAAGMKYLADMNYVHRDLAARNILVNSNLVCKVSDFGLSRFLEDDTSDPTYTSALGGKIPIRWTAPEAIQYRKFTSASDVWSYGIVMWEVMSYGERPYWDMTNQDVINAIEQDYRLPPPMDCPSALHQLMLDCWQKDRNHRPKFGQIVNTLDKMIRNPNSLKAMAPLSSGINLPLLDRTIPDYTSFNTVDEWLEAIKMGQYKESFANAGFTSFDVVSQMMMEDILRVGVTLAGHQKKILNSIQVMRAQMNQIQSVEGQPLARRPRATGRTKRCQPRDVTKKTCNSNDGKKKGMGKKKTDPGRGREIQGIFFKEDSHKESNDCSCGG
Chain of Hck (P08631 whole entry, looked up): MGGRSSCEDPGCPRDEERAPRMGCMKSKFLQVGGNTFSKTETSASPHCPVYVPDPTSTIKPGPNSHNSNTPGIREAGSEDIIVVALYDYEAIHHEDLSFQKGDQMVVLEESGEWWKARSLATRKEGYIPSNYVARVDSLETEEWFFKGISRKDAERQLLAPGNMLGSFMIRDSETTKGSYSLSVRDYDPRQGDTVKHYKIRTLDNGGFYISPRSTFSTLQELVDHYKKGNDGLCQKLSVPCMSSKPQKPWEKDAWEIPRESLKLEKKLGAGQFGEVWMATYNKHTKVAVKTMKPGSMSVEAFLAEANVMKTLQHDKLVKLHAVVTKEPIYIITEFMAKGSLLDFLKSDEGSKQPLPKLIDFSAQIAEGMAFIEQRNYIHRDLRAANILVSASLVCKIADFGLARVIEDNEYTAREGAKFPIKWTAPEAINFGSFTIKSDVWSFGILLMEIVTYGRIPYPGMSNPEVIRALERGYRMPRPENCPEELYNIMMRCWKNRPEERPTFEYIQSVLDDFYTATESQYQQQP
Chain of Fyn (P06241 whole entry, looked up): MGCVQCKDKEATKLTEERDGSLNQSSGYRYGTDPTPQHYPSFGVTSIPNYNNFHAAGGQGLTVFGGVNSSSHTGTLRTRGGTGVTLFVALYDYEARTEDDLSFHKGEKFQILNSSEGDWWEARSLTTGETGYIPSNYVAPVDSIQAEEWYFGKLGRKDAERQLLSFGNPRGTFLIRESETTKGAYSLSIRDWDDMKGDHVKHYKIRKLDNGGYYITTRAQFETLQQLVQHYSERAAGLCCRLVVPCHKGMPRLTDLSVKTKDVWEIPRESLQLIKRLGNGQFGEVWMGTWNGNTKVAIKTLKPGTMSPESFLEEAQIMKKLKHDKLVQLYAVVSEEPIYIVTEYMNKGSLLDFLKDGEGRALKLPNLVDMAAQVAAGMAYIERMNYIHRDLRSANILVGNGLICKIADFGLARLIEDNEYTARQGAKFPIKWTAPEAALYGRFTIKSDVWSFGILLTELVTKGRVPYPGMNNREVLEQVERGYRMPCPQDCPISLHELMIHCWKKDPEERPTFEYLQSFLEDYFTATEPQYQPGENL
Chain of FGFR3 (P22607 whole entry, looked up): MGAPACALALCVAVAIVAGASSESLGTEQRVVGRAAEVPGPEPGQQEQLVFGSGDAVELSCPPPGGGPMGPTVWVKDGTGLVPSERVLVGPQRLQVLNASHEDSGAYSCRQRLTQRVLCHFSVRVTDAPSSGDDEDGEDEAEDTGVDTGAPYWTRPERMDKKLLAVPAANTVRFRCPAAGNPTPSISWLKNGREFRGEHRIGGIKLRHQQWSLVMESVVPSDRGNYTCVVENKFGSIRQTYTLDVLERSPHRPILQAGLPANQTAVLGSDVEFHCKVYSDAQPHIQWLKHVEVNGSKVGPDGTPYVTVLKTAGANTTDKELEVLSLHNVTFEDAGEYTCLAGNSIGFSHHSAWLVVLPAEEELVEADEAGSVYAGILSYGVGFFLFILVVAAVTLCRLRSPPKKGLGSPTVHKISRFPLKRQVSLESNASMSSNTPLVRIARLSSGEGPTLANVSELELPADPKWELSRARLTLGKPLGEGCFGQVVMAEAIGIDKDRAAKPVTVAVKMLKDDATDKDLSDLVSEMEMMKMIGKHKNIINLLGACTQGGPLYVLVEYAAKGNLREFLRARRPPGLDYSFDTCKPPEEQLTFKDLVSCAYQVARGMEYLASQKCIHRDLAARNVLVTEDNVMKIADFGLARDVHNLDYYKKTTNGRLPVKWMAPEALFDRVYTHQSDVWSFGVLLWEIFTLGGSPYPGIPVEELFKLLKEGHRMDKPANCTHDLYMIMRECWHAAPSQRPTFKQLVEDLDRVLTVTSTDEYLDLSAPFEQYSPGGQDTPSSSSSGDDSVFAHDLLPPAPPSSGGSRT
Chain of Fes (P07332 whole entry, looked up): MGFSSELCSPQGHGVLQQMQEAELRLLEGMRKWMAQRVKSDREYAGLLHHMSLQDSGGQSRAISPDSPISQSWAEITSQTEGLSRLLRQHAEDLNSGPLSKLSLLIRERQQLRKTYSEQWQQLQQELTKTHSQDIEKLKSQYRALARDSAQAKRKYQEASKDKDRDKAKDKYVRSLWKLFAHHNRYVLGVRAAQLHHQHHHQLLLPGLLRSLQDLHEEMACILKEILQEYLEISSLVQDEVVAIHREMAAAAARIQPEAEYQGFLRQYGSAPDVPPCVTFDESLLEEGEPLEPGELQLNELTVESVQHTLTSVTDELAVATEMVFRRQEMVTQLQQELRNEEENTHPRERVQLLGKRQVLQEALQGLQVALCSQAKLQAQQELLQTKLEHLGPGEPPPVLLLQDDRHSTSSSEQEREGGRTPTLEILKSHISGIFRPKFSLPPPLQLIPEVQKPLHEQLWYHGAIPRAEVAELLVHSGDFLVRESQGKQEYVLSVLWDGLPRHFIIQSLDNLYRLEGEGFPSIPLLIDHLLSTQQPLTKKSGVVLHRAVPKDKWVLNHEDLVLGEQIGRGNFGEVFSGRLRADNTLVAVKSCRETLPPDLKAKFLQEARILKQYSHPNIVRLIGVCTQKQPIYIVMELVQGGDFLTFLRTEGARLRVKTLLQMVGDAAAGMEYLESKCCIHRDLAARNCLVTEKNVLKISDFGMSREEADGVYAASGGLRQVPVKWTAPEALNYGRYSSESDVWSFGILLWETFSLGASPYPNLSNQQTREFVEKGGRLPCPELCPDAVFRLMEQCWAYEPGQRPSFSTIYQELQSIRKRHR
Chain of Jak2 (O60674 whole entry, looked up): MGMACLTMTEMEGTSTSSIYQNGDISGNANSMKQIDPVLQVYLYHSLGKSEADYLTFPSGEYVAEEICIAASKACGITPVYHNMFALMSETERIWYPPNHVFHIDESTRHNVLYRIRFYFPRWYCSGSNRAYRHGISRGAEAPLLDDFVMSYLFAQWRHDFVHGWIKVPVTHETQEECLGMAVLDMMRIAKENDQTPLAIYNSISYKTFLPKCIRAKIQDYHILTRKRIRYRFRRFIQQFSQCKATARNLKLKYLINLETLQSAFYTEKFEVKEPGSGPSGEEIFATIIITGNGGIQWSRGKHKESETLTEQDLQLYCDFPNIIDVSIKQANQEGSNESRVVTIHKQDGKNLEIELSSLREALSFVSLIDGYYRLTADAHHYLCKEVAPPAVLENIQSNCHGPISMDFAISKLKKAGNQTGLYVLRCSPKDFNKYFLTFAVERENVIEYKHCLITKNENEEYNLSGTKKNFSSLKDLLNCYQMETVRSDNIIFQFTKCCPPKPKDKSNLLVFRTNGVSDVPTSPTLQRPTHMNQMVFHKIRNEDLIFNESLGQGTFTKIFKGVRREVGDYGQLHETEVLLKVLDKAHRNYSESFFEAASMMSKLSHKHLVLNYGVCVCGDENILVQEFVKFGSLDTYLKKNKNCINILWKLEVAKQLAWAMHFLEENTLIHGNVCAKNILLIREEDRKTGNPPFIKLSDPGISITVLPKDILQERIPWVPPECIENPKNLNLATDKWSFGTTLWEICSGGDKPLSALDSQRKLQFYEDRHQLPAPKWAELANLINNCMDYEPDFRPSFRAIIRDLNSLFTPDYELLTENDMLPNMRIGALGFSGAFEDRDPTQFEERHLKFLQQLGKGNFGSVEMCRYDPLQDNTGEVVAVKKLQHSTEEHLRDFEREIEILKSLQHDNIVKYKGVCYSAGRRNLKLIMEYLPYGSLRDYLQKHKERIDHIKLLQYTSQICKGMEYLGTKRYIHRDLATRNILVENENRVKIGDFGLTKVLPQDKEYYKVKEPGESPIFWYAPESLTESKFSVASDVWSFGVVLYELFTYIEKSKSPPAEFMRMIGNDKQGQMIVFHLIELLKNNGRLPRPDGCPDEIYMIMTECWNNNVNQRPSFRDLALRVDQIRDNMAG

Row | Sequence | SH2 binding enrichment [1] | SH2 binding enrichment [2] | SH2 binding enrichment [3] | phosphorylation enrichment [4] | phosphorylation enrichment [5] | phosphorylation enrichment [6] | phosphorylation enrichment [7] | phosphorylation enrichment [8] | phosphorylation enrichment [9] | phosphorylation enrichment [10] | phosphorylation enrichment [11] | phosphorylation enrichment [12] | phosphorylation enrichment [13] | phosphorylation enrichment [14] | phosphorylation enrichment [15] | phosphorylation enrichment [16]
1 | RELSWYRGRRP [HESX1_Y106] | 0.422 | 0.318 | 0.734 | 0.794 | 0.563 | 1.02 | 0.53 | 0.781 | 0.484 | 0.727 | 0.693 | 0.833 | 0.809 | 0.787 | 0.895 | 0.683
2 | RILDVYIFLGP [GAA_Y340_G335R] | 0.595 | 0.534 | 0.746 | 1.05 | 0.672 | 1 | 0.836 | 0.46 | 0.842 | 0.393 | 0.584 | 0.492 | 0.547 | 0.543 | 0.858 | 0.676
3 | VRQQVYKKVEE [HADHA_Y283] | 0.513 | 0.427 | 0.736 | 0.716 | 0.536 | 0.617 | 0.344 | 0.44 | 0.378 | 0.397 | 0.331 | 0.346 | 0.387 | 0.446 | 0.639 | 0.411
4 | VKANTYEKYWP [GATM_Y100] | 0.888 | 1.02 | 1.12 | 0.71 | 0.471 | 0.785 | 0.454 | 1.32 | 0.59 | 2.02 | 0.506 | 0.976 | 1.01 | 0.492 | 0.728 | 0.825
5 | SGDDGYAKDAQ [TENM4_Y1530_K1535Q] | 0.769 | 0.572 | 0.979 | 0.866 | 0.615 | 0.818 | 0.45 | 0.508 | 0.446 | 0.379 | 0.557 | 0.418 | 0.493 | 0.575 | 0.832 | 0.394
6 | RSIGEYDVLRG [PRKDC_Y2936] | 0.587 | 1.65 | 0.662 | 0.786 | 0.394 | 0.795 | 0.36 | 0.671 | 0.738 | 0.974 | 0.428 | 0.536 | 3.99 | 1.55 | 0.73 | 0.779
7 | CTTIHYIYMCN [TP53_Y234_N235I] | 1.35 | 0.716 | 0.894 | 0.989 | 0.548 | 0.728 | 0.404 | 0.254 | 0.459 | 0.263 | 0.478 | 0.281 | 0.322 | 0.742 | 0.907 | 0.461
8 | IINENYDYLKV [NUP98_Y1664_G1669V] | 0.687 | 0.595 | 0.86 | 1.1 | 1.16 | 1.38 | 1.54 | 0.538 | 1.05 | 0.625 | 2.24 | 0.919 | 1.89 | 0.664 | 0.956 | 1.31
9 | PSGPMYRGAVP [ASAH1_Y43_T42M] | 0.842 | 0.472 | 0.926 | 1.21 | 0.573 | 0.617 | 0.392 | 0.467 | 0.34 | 0.334 | 0.347 | 0.483 | 0.48 | 0.68 | 0.67 | 0.539
10 | AGADGYGYLAP [FOXL2_Y186] | 0.339 | 1.09 | 0.759 | 0.622 | 0.457 | 0.576 | 0.37 | 0.361 | 0.387 | 0.372 | 0.26 | 0.364 | 0.468 | 0.443 | 0.538 | 0.464
11 | RELGEYPLAEY [ALDH1A3_Y492_A493P] | 0.291 | 2.46 | 0.795 | 1.41 | 0.685 | 0.982 | 0.688 | 0.582 | 0.484 | 0.492 | 0.593 | 0.516 | 0.505 | 1.17 | 1.97 | 0.495
12 | MKKKTYAMGGG [GAN_Y424_I423T] | 0.233 | 0.438 | 0.728 | 0.862 | 0.531 | 0.705 | 0.653 | 0.428 | 0.857 | 1 | 0.567 | 0.578 | 0.908 | 0.761 | 0.865 | 1.09
13 | CTNELYMMMRD [FGFR1_Y730] | 0.502 | 0.427 | 0.633 | 1.38 | 1.28 | 1.34 | 0.935 | 0.705 | 1.86 | 1.15 | 0.693 | 2 | 1.47 | 0.898 | 1.35 | 1.09
14 | VSKGGYFSVNL [C3orf33_Y164] | 1.07 | 2.06 | 0.872 | 0.972 | 0.599 | 0.875 | 0.428 | 0.485 | 0.556 | 0.44 | 0.423 | 0.418 | 0.483 | 0.682 | 1.08 | 0.672
15 | IKIMGSSIRTI [IDS_Y490_Y490S] | 0.717 | 0.533 | 0.836 | 0.53 | 0.45 | 0.557 | 0.502 | 0.411 | 0.436 | 0.414 | 0.387 | 0.424 | 0.435 | 0.526 | 0.492 | 0.393
16 | LVPAWYIGFLC [KCNQ2_Y237_T234P] | 0.844 | 0.543 | 0.968 | 1.28 | 0.812 | 1.25 | 0.502 | 0.487 | 0.599 | 0.51 | 0.56 | 0.361 | 0.516 | 0.804 | 1.1 | 0.625
17 | KWKQKYEESQS [MYH6_Y1462_E1457K] | 1.09 | 1.04 | 1.35 | 0.887 | 0.693 | 0.671 | 0.431 | 0.481 | 0.508 | 0.38 | 0.405 | 0.431 | 0.531 | 0.73 | 0.85 | 0.52

Row | Sequence | SH2 binding enrichment [1] | SH2 binding enrichment [2] | SH2 binding enrichment [3] | phosphorylation enrichment [4] | phosphorylation enrichment [5] | phosphorylation enrichment [6] | phosphorylation enrichment [7] | phosphorylation enrichment [8] | phosphorylation enrichment [9] | phosphorylation enrichment [10] | phosphorylation enrichment [11] | phosphorylation enrichment [12] | phosphorylation enrichment [13] | phosphorylation enrichment [14] | phosphorylation enrichment [15] | phosphorylation enrichment [16]
18 | STGSRYQPLAS [NCAPD2_Y1325] | 0.651 | 0.486 | 0.826 | 0.609 | 0.494 | 0.474 | 0.42 | 0.433 | 0.424 | 0.423 | 0.423 | 0.549 | 0.414 | 0.505 | 0.596 | 0.435
19 | QLCVSYPGGFT [PROS1_Y259_N258S_YF] | 0.687 | 0.535 | 0.711 | 1.47 | 0.892 | 1.12 | 0.496 | 0.663 | 0.481 | 0.658 | 0.775 | 0.578 | 0.682 | 1.24 | 1.45 | 0.546
20 | DKVFTYIFIME [SCN4A_Y1074] | 0.58 | 0.469 | 0.813 | 1.53 | 1.14 | 1.32 | 0.54 | 0.41 | 0.645 | 0.533 | 0.658 | 0.41 | 0.575 | 0.968 | 1.35 | 0.695
21 | EVTQDYGLDPK [FH_Y110_N107T] | 0.648 | 0.461 | 0.672 | 1.36 | 0.902 | 1.32 | 0.558 | 0.513 | 0.606 | 0.504 | 0.625 | 0.528 | 0.574 | 0.842 | 1.06 | 0.637
22 | EEQKKYFNAVK [SCN5A_Y1494_M1498V_YF] | 0.604 | 0.574 | 0.868 | 1.05 | 0.567 | 0.832 | 0.358 | 0.506 | 0.482 | 0.383 | 0.414 | 0.482 | 0.483 | 0.742 | 0.727 | 0.566
23 | PMFTKYGNSLL [RPGRIP1L_Y196] | 0.679 | 0.749 | 0.952 | 1.73 | 0.912 | 1.45 | 0.645 | 0.558 | 1.07 | 0.951 | 1.44 | 0.708 | 0.636 | 1.49 | 1.44 | 0.643
24 | FSALDYKIFYY [WDPCP_Y210_L205F] | 1.17 | 1.27 | 1.22 | 1.45 | 1.18 | 1.38 | 1.23 | 0.613 | 0.928 | 0.763 | 0.529 | 0.462 | 0.473 | 1.2 | 1.4 | 0.588
25 | SLEKGYELPDG [ACTC1_Y242_S241G] | 0.847 | 5.21 | 0.832 | 0.909 | 0.545 | 0.994 | 0.438 | 0.49 | 0.475 | 0.368 | 0.436 | 0.35 | 0.488 | 0.6 | 0.756 | 0.499
26 | SDPIIYTLENV [ADGRE1_Y534_I539V] | 0.682 | 0.554 | 0.88 | 1.38 | 0.663 | 1.1 | 0.577 | 7 | 0.5 | 4.92 | 5.1 | 1.09 | 1.61 | 0.723 | 0.945 | 0.576
27 | RFFTTYDTNGR [CLCA1_Y665_YF] | 1.67 | 0.532 | 0.825 | 0.951 | 0.878 | 1.08 | 0.674 | 0.627 | 0.726 | 1.09 | 0.688 | 0.707 | 0.787 | 0.858 | 0.816 | 0.834
28 | KKHFSYAWPFY [BRDT_Y291] | 1.46 | 1.52 | 1.73 | 0.965 | 0.564 | 1 | 0.495 | 0.456 | 0.622 | 0.375 | 0.385 | 1.22 | 0.425 | 0.493 | 0.647 | 0.428
29 | SADIAYNFRHG [PAH_Y166_F161S_YF] | 0.798 | 0.535 | 0.869 | 0.673 | 0.469 | 0.587 | 0.433 | 0.416 | 0.447 | 0.457 | 0.348 | 0.374 | 0.423 | 0.789 | 0.574 | 0.33
30 | FGTAQYCCRMG [LRRK2_Y2023_I2020T_YF] | 0.863 | 0.772 | 0.978 | 0.693 | 0.517 | 0.663 | 0.56 | 0.463 | 0.598 | 0.403 | 0.499 | 1.79 | 0.518 | 1.28 | 0.515 | 8.12
31 | EFDRLYEEFTR [PIK3R1_Y467_YF] | 1.05 | 0.516 | 0.92 | 1.15 | 0.807 | 1.59 | 0.65 | 7.47 | 3.46 | 5.36 | 6.18 | 3.04 | 6.11 | 0.841 | 1.01 | 2.77
32 | RSRSSYTHSLN [MYCT1_Y116_G119S] | 0.348 | 0.435 | 0.786 | 0.755 | 0.514 | 0.832 | 0.575 | 0.63 | 0.504 | 0.938 | 0.381 | 0.762 | 0.495 | 0.97 | 0.948 | 0.537
33 | PKSLFYLLLKL [TRPC6_Y775] | 1.31 | 0.747 | 0.998 | 2.82 | 1.48 | 2.5 | 1.12 | 0.31 | 1.04 | 1.74 | 1.51 | 1.54 | 0.716 | 2.62 | 4.8 | 1.89
